Laboratory results: patent publication US20040235029A1

Biological target: exonuclease V (ExoV) of E. coli, a component of RecBCD holoenzyme (E. coli) (UniProt P08394)
Assay: cell-based or functional assay

UniProt P08394, sequence (P08394 2-1180 limits assumed, chain 1 of 3): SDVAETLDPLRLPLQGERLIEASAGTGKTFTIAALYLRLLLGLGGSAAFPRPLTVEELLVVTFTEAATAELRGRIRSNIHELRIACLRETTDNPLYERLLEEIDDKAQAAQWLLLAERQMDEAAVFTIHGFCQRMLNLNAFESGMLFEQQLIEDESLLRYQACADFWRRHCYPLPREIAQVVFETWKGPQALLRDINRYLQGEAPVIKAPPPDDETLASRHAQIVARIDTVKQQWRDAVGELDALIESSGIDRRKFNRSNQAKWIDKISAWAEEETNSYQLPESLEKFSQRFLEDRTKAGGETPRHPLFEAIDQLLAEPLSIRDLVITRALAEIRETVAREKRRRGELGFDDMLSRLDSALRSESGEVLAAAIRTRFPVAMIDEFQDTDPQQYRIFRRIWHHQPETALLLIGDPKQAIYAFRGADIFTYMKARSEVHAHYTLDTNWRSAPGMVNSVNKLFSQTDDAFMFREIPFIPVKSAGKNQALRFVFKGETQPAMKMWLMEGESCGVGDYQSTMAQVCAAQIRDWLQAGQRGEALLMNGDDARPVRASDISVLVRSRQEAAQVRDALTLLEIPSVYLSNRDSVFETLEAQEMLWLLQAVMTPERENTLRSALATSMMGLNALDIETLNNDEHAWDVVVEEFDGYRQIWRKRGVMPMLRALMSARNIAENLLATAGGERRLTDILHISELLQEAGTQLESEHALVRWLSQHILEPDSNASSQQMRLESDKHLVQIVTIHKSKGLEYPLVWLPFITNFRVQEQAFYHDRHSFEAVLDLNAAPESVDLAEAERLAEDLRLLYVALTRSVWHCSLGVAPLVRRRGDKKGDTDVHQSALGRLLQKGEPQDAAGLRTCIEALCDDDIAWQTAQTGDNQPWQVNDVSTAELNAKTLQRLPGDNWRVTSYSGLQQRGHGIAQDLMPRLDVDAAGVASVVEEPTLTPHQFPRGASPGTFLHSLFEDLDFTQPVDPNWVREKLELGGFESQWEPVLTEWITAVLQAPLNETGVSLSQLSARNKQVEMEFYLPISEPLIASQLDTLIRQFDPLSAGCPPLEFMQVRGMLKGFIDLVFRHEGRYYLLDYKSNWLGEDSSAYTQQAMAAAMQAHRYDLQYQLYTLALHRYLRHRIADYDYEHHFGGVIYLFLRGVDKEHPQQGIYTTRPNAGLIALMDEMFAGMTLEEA
UniProt P08394, sequence (P07648 whole entry, chain 2 of 3, further chain): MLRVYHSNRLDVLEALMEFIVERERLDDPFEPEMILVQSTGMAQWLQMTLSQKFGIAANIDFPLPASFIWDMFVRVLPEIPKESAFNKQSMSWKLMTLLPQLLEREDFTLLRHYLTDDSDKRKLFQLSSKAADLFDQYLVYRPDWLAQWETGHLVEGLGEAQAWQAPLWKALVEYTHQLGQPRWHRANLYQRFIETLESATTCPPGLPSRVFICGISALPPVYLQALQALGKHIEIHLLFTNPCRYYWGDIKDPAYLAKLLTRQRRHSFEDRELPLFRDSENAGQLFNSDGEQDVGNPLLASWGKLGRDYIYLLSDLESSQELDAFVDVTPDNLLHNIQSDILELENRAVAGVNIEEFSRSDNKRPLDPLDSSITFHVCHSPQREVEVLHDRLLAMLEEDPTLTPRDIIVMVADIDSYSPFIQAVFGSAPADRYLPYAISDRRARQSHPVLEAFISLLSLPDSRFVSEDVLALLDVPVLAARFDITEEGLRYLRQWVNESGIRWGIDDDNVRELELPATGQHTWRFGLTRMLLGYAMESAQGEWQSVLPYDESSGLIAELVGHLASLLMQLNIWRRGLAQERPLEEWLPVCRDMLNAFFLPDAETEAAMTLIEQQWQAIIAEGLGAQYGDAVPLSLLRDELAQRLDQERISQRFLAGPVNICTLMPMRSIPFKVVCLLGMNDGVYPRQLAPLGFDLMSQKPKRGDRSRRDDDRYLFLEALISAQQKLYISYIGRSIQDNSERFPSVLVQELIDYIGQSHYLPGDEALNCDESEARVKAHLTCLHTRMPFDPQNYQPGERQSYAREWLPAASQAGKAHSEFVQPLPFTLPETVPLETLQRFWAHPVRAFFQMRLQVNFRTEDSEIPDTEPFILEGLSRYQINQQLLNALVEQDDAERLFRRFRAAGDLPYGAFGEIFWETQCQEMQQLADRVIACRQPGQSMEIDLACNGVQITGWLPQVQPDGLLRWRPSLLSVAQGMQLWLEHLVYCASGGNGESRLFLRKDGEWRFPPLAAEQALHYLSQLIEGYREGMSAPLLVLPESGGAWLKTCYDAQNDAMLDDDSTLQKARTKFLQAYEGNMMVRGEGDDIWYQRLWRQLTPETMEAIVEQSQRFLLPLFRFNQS
UniProt P08394, sequence (P04993 whole entry, chain 3 of 3, further chain): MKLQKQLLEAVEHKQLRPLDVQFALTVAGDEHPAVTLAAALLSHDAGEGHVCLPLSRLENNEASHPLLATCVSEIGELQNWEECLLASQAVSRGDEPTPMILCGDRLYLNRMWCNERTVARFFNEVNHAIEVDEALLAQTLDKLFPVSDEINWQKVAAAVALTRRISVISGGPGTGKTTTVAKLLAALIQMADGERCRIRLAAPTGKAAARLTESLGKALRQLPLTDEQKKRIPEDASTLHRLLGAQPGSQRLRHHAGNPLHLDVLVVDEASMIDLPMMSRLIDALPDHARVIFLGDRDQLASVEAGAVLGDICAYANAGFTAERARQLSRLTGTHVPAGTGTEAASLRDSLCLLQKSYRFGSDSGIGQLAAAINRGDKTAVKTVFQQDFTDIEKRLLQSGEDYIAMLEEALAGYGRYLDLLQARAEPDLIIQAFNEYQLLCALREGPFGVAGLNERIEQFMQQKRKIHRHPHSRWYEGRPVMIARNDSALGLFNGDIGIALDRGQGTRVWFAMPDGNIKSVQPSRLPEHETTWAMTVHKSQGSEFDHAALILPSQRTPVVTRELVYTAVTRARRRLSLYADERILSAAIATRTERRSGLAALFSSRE

## GamS protein of bacteriophage lambda with C-terminal 6His tag (from UniProt P03702 41-138)
  GFP expression from linear template in batch IVT with co-expressed GamS plasmid template (Coomassie staining of gel): > 2 fold
  GFP expression from linear template in batch IVT with crude GamS (PAGE, Coomassie), against control reaction without GamS: 2 fold
  GFP protein synthesis from a linear template in batch mode IVT (Coomassie staining of gel), against control reactions lacking GamS: 3 fold
